Target: T1, MBP-TaBZR1 (Triticum aestivum, UniProt A0A3B6AUH8 1-313)
T1 sequence: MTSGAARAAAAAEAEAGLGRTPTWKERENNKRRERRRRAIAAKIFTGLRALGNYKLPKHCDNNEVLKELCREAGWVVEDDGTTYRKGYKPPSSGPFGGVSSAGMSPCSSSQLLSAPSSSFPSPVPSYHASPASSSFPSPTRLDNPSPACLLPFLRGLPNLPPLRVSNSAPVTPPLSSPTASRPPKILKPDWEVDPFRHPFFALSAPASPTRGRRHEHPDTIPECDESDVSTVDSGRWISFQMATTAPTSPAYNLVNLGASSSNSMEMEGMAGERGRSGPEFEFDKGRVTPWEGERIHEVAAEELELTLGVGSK
Experiment: EMSA; 1 nM probe; 1x LightShift binding buffer, 50 ng poly(dI-dC), 2.5% glycerol, 0.05% NP-40, 50 mM KCl, 5 mM MgCl2, 2 mM EDTA pH 8.0, 1 nM biotin probe, 25 C 20 min, 6% PAGE
Conditions: protein: recombinant; tags: N-terminal MBP (pCold-MBP); chain copies: 2; label: biotin (forward strand primer marked bio); blunt

B1: TaSAMT1-B promoter E-box probe (dsDNA)
DNA 1: CACGCGCATACGTGCTCATATGGCAATGAG
DNA 2: CTCATTGCCATATGAGCACGTATGCGCGTG
Q: Does B1 bind?
A: Result: binds

Source: paper PMC11218785, “Methyltransferase TaSAMT1 mediates wheat freezing tolerance by integrating brassinosteroid and salicylic acid signaling”
